Results from US20230129812A1, “COMPOSITIONS AND METHODS FOR TREATING PULMONARY HYPERTENSION” (Acceleron Pharma Inc., priority 2020, published 2023).
Values belong to the molecule of their own block, whether it stands above or below them.

Assays:
GDF8 [1] = molecular target: T1, GDF8 (Homo sapiens, UniProt O14793); assay: A-204 reporter gene assay, pGL3(CAGA)12 luciferase; format: cell-based
T1 sequence (O14793 267-375): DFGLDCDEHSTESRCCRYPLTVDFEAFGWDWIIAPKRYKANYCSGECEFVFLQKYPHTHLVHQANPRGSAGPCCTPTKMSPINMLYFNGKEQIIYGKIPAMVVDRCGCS
Text: (§1) An A-204 reporter gene assay was used to evaluate the effects of ActRIIB-Fc proteins and ActRIIB variant Fc fusion polypeptides on signaling by GDF-11 and activin A. Cell line: human rhabdomyosarcoma (derived from muscle). Reporter vector: pGL3(CAGA)12 (described in Dennler et al, 1998, EMBO 17: 3091-3100). The CAGA12 motif is present in TGF-beta responsive genes (e.g., PAI-1 gene), so this vector is of general use for factors signaling through SMADs.
(§2) Day 1: Split A-204 cells into 48-well plate.
(§3) Day 2: A-204 cells transfected with 10 ug pGL3(CAGA)12 or pGL3(CAGA)12(10 ug)+pRLCMV (1 pg) and Fugene.
(§4) Day 3: Add factors (diluted into medium+0.1% BSA). Inhibitors need to be preincubated with factors for 1 hr before adding to cells. Six hrs later, cells were rinsed with PBS and lysed.
(§5) This is followed by a luciferase assay.
As described below, ActRIIB variants were also tested in this assay.
(§6) In addition, an A-204 Reporter Gene Assay was used to evaluate the effects of ALK4-Fc:ActRIIB-Fc heterodimer and ActRIIB-Fc:ActRIIB-Fc homodimer on signaling by activin A, activin B, GDF11, GDF8, BMP10, and BMP9. Cell line: Human Rhabdomyosarcoma (derived from muscle). Reporter vector: pGL3(CAGA)12 (as described in Dennler et al, 1998, EMBO 17: 3091-3100). The CAGA12 motif is present in TGFβ responsive genes (PAI-1 gene), so this vector is of general use for factors signaling through Smads. An exemplary A-204 Reporter Gene Assay is outlined below. • Day 1: Split A-204 cells into 48-well plate. • Day 2: A-204 cells transfected with 10 ug pGL3(CAGA)12 or pGL3(CAGA)12(10 ug)+pRLCMV (1 ug) and Fugene. • Day 3: Add factors (diluted into medium+0.1% BSA). Inhibitors need to be pre-incubated with Factors for about one hr before adding to cells. About six hrs later, cells are rinsed with PBS and then lysed.
(§7) Following the above steps, a Luciferase assay was performed.

activin B [2] = molecular target: T2, activin B (Homo sapiens, UniProt P09529); assay: A-204 Reporter Gene Assay (Example 13); format: cell-based
T2 sequence (P09529 293-407): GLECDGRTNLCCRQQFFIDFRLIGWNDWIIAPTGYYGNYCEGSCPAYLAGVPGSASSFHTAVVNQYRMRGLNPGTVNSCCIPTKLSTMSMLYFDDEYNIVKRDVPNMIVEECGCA
Text: as §6, §7

GDF11 [3] = molecular target: T3, GDF11 (Homo sapiens, UniProt O95390); assay: A-204 reporter gene assay, pGL3(CAGA)12 luciferase; format: cell-based; conditions: A-204 reporter gene assay
T3 sequence (O95390 299-407): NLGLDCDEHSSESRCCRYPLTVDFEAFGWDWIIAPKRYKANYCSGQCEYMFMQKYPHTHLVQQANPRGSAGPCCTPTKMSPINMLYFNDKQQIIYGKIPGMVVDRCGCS
Text: as §1, §2, §3, §4, §5
(§8) Activity of ActRIIB-Fc proteins and ActRIIB variant Fc fusion polypeptides was tested in a cell-based assay as described above. Some variants were tested in different C-terminal truncation constructs. As discussed above, truncations of five or fifteen amino acids caused reduction in activity. […]

activin B [4] = molecular target: T2, activin B; assay: Biacore ligand binding profile, ALK4-Fc:ActRIIB-Fc heterodimer vs homodimers, anti-Fc capture (Example 13, Table 13); conditions: ligand Activin B, Table 13
Experimental: (§9) A Biacore™-based binding assay was used to compare ligand binding selectivity of the ALK4-Fc:ActRIIB-Fc heterodimeric complex described above with that of ActRIIB-Fc and ALK4-Fc homodimer complexes. The ALK4-Fc:ActRIeB-Fc heterodimer, […], and ALK4-Fc homodimer were independently captured onto the system using an anti-Fc antibody. Ligands were injected and allowed to flow over the captured receptor protein. Results are summarized in Table 13 below, in which ligand off-rates (kd) most indicative of effective polypeptides are denoted in bold.

activin A [5] = molecular target: T4, activin A (Homo sapiens, UniProt P08476); assay: as above
T4 sequence (P08476 311-426): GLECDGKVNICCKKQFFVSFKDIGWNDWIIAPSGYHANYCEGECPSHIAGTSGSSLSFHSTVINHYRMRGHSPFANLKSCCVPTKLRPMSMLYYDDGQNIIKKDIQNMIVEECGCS
Experimental: as §9

GDF8 [6] = molecular target: T1, GDF8; assay: as above
Experimental: as §9

GDF3 = molecular target: T5, GDF3 (Homo sapiens, UniProt Q9NR23); assay: as above; conditions: ligand GDF3, Table 13
T5 sequence (Q9NR23 251-364): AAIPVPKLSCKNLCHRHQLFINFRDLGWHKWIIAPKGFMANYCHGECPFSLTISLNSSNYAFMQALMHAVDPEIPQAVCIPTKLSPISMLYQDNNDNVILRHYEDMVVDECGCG
Experimental: as §9

BMP10 [7] = molecular target: T6, BMP10 (Homo sapiens, UniProt O95393); assay: as above; conditions: ligand BMP10, Table 13
T6 sequence (O95393 317-424): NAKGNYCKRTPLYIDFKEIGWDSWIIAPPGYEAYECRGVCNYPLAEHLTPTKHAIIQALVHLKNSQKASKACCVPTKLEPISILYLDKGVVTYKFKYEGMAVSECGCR
Experimental: as §9

BMP9 = molecular target: T7, BMP9 (Homo sapiens, UniProt Q9UK05); assay: as above
T7 sequence (Q9UK05 320-429): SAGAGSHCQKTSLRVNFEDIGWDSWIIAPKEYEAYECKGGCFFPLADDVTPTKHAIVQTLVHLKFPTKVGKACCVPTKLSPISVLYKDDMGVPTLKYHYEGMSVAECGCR
Experimental: as §9

BMP6 [8] = molecular target: T8, BMP6 (Homo sapiens, UniProt P22004); assay: as above
T8 sequence (P22004 375-513): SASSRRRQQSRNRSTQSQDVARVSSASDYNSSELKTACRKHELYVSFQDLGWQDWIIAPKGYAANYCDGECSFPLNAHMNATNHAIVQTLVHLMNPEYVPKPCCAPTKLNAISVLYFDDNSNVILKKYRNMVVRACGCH
Experimental: as §9

GDF11 [9] = molecular target: T3, GDF11; assay: as above
Experimental: as §9

activin A [10] = molecular target: T4, activin A; assay: A-204 reporter gene assay, pGL3(CAGA)12 luciferase; format: cell-based; conditions: A-204 reporter gene assay
Text: as §1, §2, §3, §4, §5, §8

activin B [11] = molecular target: T2, activin B; assay: Biacore ligand affinity of ActRIIB-hFc forms, steady-state affinity fit; format: binding
Experimental: (§10) Affinities of several ligands for ActRIIB(25-131)-hFc and its full-length counterpart ActRIIB(20-134)-hFc were evaluated in vitro with a Biacore™ instrument, and the results are summarized in Table 8 below. Kd values were obtained by steady-state affinity fit due to very rapid association and dissociation of the complex, which prevented accurate determination of kon and koff. ActRIIB(25-131)-hFc bound, for example, activin A, activin B, and GDF11 with high affinity.
(§11) The affinity of ActRIIB variants and other ActRIIB-hFc proteins for several ligands was evaluated in vitro with a Biacore™ instrument. Kd values were obtained by steady-state affinity fit due to the very rapid association and dissociation of the complex, which prevented accurate determination of kon and koff.

activin A [12] = molecular target: T4, activin A; assay: as above; format: binding
Experimental: as §10, §11

GDF11 [13] = molecular target: T3, GDF11; assay: as above; format: binding
Experimental: as §10, §11

GDF8 [14] = molecular target: T1, GDF8; assay: Biacore ligand affinity of ActRIIB-hFc variants (Example 10); format: binding
Experimental: as §11

BMP10 [15] = molecular target: T6, BMP10; assay: as above; format: binding
Experimental: as §11

BMP6 [16] = molecular target: T8, BMP6; assay: as above; format: binding
Experimental: as §11

[17] = In vivo activity of ActRIIA variant with substitution at X17; conditions: substitution of A for K at X17

inhibition of GDF8 signaling (GDF8 [1]): potent inhibitors
inhibition of activin B signaling (activin B [2]): potent inhibitors
inhibition of GDF11 signaling (GDF11 [3]): potent inhibitors
ka (activin B [4]): 5.1 × 10^6 1/MS
kd (activin B [4]): 0.0001 s⁻¹
activin A binding (activin A [5]; Example 13): strong binding
ka (activin A [5]; ligand Activin A, Table 13): 1.2 × 10^7 1/MS
kd (activin A [5]; ligand Activin A, Table 13): 0.00023 s⁻¹
GDF8 binding (GDF8 [6]; Example 13): strong binding
ka (GDF8 [6]; ligand GDF8, Table 13): 8.3 × 10^5 1/MS
kd (GDF8 [6]; ligand GDF8, Table 13): 0.00023 s⁻¹
ka (GDF3): 1.4 × 10^6 1/MS
kd (GDF3): 0.0022 s⁻¹
ka (BMP10 [7]): 2.3 × 10^7 1/MS
kd (BMP10 [7]): 0.00026 s⁻¹
BMP9 binding (BMP9; Example 13): binds strongly
ka (BMP9; ligand BMP9, Table 13): 1.4 × 10^7 1/MS
kd (BMP9; ligand BMP9, Table 13): 0.0011 s⁻¹
BMP6 binding (BMP6 [8]; Example 13): intermediate-level binding
ka (BMP6 [8]; ligand BMP6, Table 13): 3.2 × 10^7 1/MS
kd (BMP6 [8]; ligand BMP6, Table 13): 0.0068 s⁻¹
GDF11 binding (GDF11 [9]; Example 13): strong binding
ka (GDF11 [9]; ligand GDF11, Table 13): 5.0 × 10^7 1/MS
kd (GDF11 [9]; ligand GDF11, Table 13): 0.00011 s⁻¹
inhibition of activin A signaling (activin A [10]): potent inhibitors
B1: ActRIIB-Fc homodimer: ActRIIB-Fc homodimer complex used as comparator in Example 13 (protein)
chain: GRGEAETRECIYYNANWELERTNQSGLERCEGEQDKRLHCYASWRNSSGTIELVKKGCWLDDFNCYDRQECVATEENPQVYFCCCEGNFCNERFTHLPEAGGPEVTYEPPPTAPTGGGTHTCPPCPAPELLGGPSVFLFPPKPKDTLMISRTPEVTCVVVDVSHEDPEVKFNWYVDGVEVHNAKTKPREEQYNSTYRVVSVLTVLHQDWLNGKEYKCKVSNKALPVPIEKTISKAKGQPREPQVYTLPPSREEMTKNQVSLTCLVKGFYPSDIAVEWESNGQPENNYKTTPPVLDSDGSFFLYSKLTVDKSRWQQGNVFSCSVMHEALHNHYTQKSLSLSPGK

activin B binding (activin B [11]; Biacore): partial loss of activin B binding
Kd (activin B [11]; Table 12, Kd by steady-state affinity fit, read-out: Activin B (Kd e−11)): 0.621 nM
activin A binding (activin A [12]; Biacore): pronounced loss of activin A binding
Kd (activin A [12]; Table 12, Kd by steady-state affinity fit, read-out: Activin A (Kd e−11)): 22.9 nM
GDF11 binding (GDF11 [13]; Biacore): nearly full retention of GDF11 binding
Kd (GDF11 [13]; Table 12, Kd by steady-state affinity fit, read-out: GDF11 (Kd e−11)): 0.074 nM
GDF8 binding (GDF8 [14]): strong to intermediate binding
BMP10 binding (BMP10 [15]): strong to intermediate binding
BMP6 binding (BMP6 [16]): strong to intermediate binding
B2: ActRIIB(L79D 25-131)-hFc: truncated ActRIIB extracellular domain (residues 25-131) with L79D substitution fused to human Fc (protein)
chain: ETRECIYYNANWELERTNQSGLERCEGEQDKRLHCYASWRNSSGTIELVKKGCWDDDFNCYDRQECVATEENPQVYFCCCEGNFCNERFTHLPEAGGPEVTYEPPPTGGGTHTCPPCPAPELLGGPSVFLFPPKPKDTLMISRTPRVTCVVVDVSHEDPEVKFNWYVDGVEVHNAKTKPREEQYNSTYRVVSVLTVLHQDWLNGKEYKCKVSNKALPAPIEKTISKAKGQPREPQVYTLPPSREEMTKNQVSLTCLVKGFYPSDIAVEWESNGQPENNYKTTPPVLDSDGSFFLYSKLTVDKSRWQQGNVFSCSVMHEALHNHYTQKSLSLSPGK

B3: SEQ ID NO: 283: ActRIIA variant with alanine (A) substituted for lysine (K) at X17 (protein)
chain: GAILGRSETQECLFYNANWELERTNQTGVERCEGEKDKRLHCYATWRNISGSIEIVAKGCWLDDFNCYDRTDCVETEENPQVYFCCCEGNMCNEKFSYFPEMEVTQPTS
activity in vivo [17]: reduced activity in vivo
